In US7164008B2, “Isolated complexes of endotoxin and MD-2” (priority 2003, dated 2007):

Legend:
[1] = target: T1, TLR4 (Homo sapiens, UniProt O00206+Q9Y6Y9); test: Cell association of [^3H]-LOS forms with HEK/TLR4 cells (liquid scintillation); format: cell-based; conditions: [^3H]-LOS-MD-2 0.75 ng/ml, HEK/TLR4 overnight
T1 construct: host or cells: HEK293 stably transfected with TLR4 (HEK/TLR4)
Protocol: FIG. 3 depicts delivery of [^3H]-LOS-MD-2 but not [^3H]-LOSagg or [^3H]-LOS-sCD14 to HEK/TLR4. HEK (□) or HEK/TLR4 (▪) cells were incubated with [^3H]-LOS (0.75 ng/ml) in the form of LOSagg, LOS-sCD14, or LOS-MD-2. After overnight incubation at 37° C., cells were washed and lysed as described in Methods. The amount of [^3H]-LOS associated with the cells was measured by liquid scintillation spectroscopy. Results are from one experiment in duplicate, representative of three similar experiments.
FIG. 4 depicts the effects of added MD-2 on activation of HEK/TLR4 by [^3H]-LOS-MD-2 and delivery of [^3H]-LOS-MD-2 to HEK/TLR4. […] After overnight incubation, extracellular accumulation of IL-8 was measured. […] Column fractions were analyzed for [^14C]-LOS by liquid scintillation spectroscopy. […] The amount of radioactivity associated with the cells was determined by liquid scintillation spectroscopy. No radioactivity was associated with parental cells.
HEK or HEK/TLR4 cells were grown to confluency in 6 well plates, washed twice with warm PBS, and [^3H]-LOS aggregates or [^3H]-LOS-protein complexes+/−indicated supplements were incubated overnight at 37° C., 5% CO2, and 95% humidity in DMEM, 0.1% HSA with the supplements indicated in the legends to FIGS. 3 and 4. […] The amount of radioactivity associated with the cells was determined by liquid scintillation spectroscopy. Total recovery of radioactivity was >90%.

[2] = test system: human airway epithelia; test: Endotoxin responsiveness of primary human airway epithelia (HBD-2 mRNA real time PCR, NF-κB-luciferase); format: cell-based; conditions: N. meningitidis LOS-sCD14 5 ng LOS/ml, 24 hr, HBD-2 real time PCR
Protocol: FIG. 6 depicts endotoxin responsiveness of well-differentiated primary cultures of human airway epithelia. Polarized epithelia were treated with NTHi LOS (100 ng/ml), sCD14 (100 ng/ml) and LBP (250 ng/ml) by apical application in a 50 μl volume. Twenty-four hours later, epithelia were harvested and analyzed for HBD-2 mRNA expression by real time PCR. As depicted in FIG. 6A, apical stimulation of airway epithelia with NTHi LOS induced little change in HBD-2 MRNA expression (2 epithelia/trial, n=3 different donors, * indicates p<0.05). In contrast, IL-1β markedly induces HBD-2 mRNA. FIG. 6B depicts the polarity of epithelial responses to IL-1β and NTHi LOS. […]
FIG. 9 depicts the effects of MD-2 complementation on endotoxin responsiveness in human airway epithelia. […] Fold increase in HBD-2 mRNA expression were quantified by real time PCR. […] NF-κB-luciferase activity was measured 24 hr following endotoxin treatment (n=5 epithelia/condition, * indicates p<0.05). […] 24 hr after endotoxin treatment, HBD-2 expression was quantified by real time PCR. […]
Well differentiated human airway epithelia were treated with N. meningitidis LOS-sCD14 (5 ng LOS/ml), with or without the addition of cell culture supernatants containing rMD-2. […] HBD-2 expression was quantified by real time PCR. […]
Real-time PCR was employed to detect human β-defensin-2 and MD-2 and to quantify changes in expression. […]

T1 sequence (O00206 24-839, one chain of several): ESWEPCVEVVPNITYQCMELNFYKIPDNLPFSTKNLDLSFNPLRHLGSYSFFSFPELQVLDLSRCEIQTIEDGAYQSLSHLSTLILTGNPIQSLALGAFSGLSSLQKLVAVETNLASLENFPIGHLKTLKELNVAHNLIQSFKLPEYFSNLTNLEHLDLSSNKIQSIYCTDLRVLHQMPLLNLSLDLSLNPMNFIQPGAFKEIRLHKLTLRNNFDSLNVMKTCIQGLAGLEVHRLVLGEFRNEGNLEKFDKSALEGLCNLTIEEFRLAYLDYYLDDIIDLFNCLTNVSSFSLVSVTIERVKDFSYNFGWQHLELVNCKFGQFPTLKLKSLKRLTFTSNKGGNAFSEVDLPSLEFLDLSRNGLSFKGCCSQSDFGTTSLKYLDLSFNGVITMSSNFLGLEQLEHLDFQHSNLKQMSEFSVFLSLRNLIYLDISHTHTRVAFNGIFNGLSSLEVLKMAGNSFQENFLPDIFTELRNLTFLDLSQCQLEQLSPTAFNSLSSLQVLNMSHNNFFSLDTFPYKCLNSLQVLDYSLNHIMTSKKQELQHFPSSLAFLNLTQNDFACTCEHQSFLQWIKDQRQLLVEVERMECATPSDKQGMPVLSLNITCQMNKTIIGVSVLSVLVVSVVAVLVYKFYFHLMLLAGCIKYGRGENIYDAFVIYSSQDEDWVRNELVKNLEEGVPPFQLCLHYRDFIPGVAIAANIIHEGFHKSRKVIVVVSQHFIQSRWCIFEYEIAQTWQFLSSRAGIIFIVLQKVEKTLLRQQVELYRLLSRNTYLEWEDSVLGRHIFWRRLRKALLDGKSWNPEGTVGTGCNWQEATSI

B1: wt MD-2: soluble polyhistidine-tagged recombinant wild-type MD-2 in conditioned insect cell culture medium (protein)
chain: QKQYWVCNSSDASISYTYCDKMQYPISINVNPCIELKRSKGLLHIFYIPRRDLKQLYFNLYITVNTMNLPKRKEVICRGSDDDYSFCRALKGETVNTTISFSFKGIKFSKGKYKCVVEAISGSPEEMLFCLEFVILHQPNSNHHHHHH
In the case of B1, the “effect of excess MD-2 on TLR4-dependent cell association of [^3H]-LOS-MD-2” value [1] is reported as “blocked” and the “increase of response of human airway epithelial cultures to LOS-sCD14” value [2] is reported as at least 100 fold.
